The nature of this series: soluble on expression in E. coli; label from the status in PepcDB or PDB records.
Turning to “MTVGLGMPQPPAPTLAPRRATRQLMVGNVGVGSDHPVSVQSMCTTKTHDVNSTLQQIAELTAAGCDIVRVACPRQEDADALAEIARHSQIPVVADIHFQPRYIFAAIDAGCAAVRVNPGNIKEFDGRVGEVAKAAGAAGIPIRIGVNAGSLDKRFMEKYGKATPEALVESALWEASLFEEHGFGDIKISVKHNDPVVMVAAYELLAARCDYPLHLGVTEAGPAFQGTIKSAVAFGALLSRGIGDTIRVSLSAPPVEEVKVGNQVLESLNLRPRSLEIVSCPSCGRAQVDVYTLANEVTAGLDGLDVPLRVAVMGCVVNGPGEAREADLGVASGNGKGQIFVRGEVIKTVPEAQIVETLIEEAMRLAAEMGEQDPGATPSGSPIVTVS”, the “soluble on expression in E. coli” value is “soluble”.
For “MLRISRDLVIDEDDIEIGFVRASGPGGQNVNKVATSAQLRFDTRKLTLPEDATIRLARIAGQRMTKDGVIVIHAQRFRTQERNRQDAIDRLVEILSEAMIRPKPRRATRPTFGSKQRRLEGKKRRSDVKAGRGRSFDDLEHHHHHH”, the “soluble on expression in E. coli” value is “soluble”.
To “MSLTDKPQAEVIAVYPNKVKICVDDLGSFTEGHPLLRVGSYLRVTDHEDCILIAIIESFLIEVDDRKNRRHVIEALPLGVIKDDKFIRGGDALTIPPTGVAPATIQDIKKIFEDSVPTNRKFEFSSLVTDPDIRVPVDGNRFFNKHIAVVGSTGAGKSNTVTRIIQTSTTKTPSGTQNNSHAIIFDIHSEYKAAFPHANHIDINSLNLPYWLLNSDELEEVLLDTGERDNYNQSSVFRYLVTENKKKHNEGHHHHHH” belongs “not soluble”.
For “MGSDKIHHHHHHMKNVLILSSSPRRGGNSDTLCDEFMQGAIESGHRVEKVFLRDKTIHPCTGCGVCSQYKKPCPQKDDAAEIIGKMLAADVIVMATPVYFYAMSAQMKTLIDRCCGPYTEMKNKEFYFIATAAEEDNGIMDRIVANFMGFLDCLENPTVKGTLFCGGVWHVGEIEGNPTLRQAYEQGKRV”, the “soluble on expression in E. coli” value is listed as “not soluble”.
Regarding “MKQEFTRIAVKVGSNVLARRDGTLDVTRMSALVDQIAELNKSGVEIILISSGAVASGRSEIHPQKKLDSVDQRQLFSAVGQAKLINRYYELFREHGIAVGQVLTTKENFSTRRHYLNQKNCMTVMLENGVIPIVNENDTISVSELMFTDNDELSGLIASMMDAQALIILSNIDGIYNGSPSDPASAVIREIEHGKDLSNYIQATKSSFGRGGMLTKTNIARKVADEGITVIIANGKRDNILVDLLQQPDDTVCTRFIPSTEAVSSVKKWIAHSEGFAKGEIHINECATDILSSEKAASILPVGITHIEGEFEKDDIVRIMDFLGNQVGVGKANCDSAQAREAMGKHGKKPVVHYDYLYIE”, the “soluble on expression in E. coli” value is given as “not soluble”.
Under “MQKLINSVQNYAWGSKTALTELYGIANPQQQPMAELWMGAHPKSSSRITTANGETVSLRDAIEKNKTAMLGEAVANRFGELPFLFKVLCAAQPLSIQVHPNKRNSEIGFAKENAAGIPMDAAERNYKDPNHKPELVFALTPFLAMNAFREFSDIVSLLQPVAGAHSAIAHFLQVPNAERLSQLFASLLNMQGEEKSRALAVLKAALNSQQGEPWQTIRVISEYYPDDSGLFSPLLLNVVKLNPGEAMFLFAETPHAYLQGVALEVMANSDNVLRAGLTPKYIDIPELVANVKFEPKPAGELLTAPVKSGAELDFPIPVDDFAFSLHDLALQETSIGQHSAAILFCVEGEAVLRKDEQRLVLKPGESAFIGADESPVNASGTGRLARVYNKL” stands “not soluble”; under “MNPTFLEFIGANQRSSCGYCKNDRGERTPARSAKSGAWAHSMTVNDYSGLLDVGWRRSGRYLYKPDNRVTCCPQYTIRLDVTKFKMSRSQKRAMRQMNEFLATGKRPVCGIKEEDAPVEMNLKGSGSQSEQSKKNLKSHEVSTKKMKDADRPVLTKKEIRNKKFEEKCRQKNLDPDVVRTERRQKDAARQRTIQSYIDEARPDWKHKLEVKLVSLGGDEFGTRDNESFELYKNYQHTIHKDEDCRLAGFRRFLCDSPLKKEQRGGIELGSFHLWFLLDDKLIAVCVVDILPKCFSAKYMYYNPEYSFLSLGTYTALREIEQTQRLHAIYSNLKYYYMGYYIHSCPKMRYKAKFRPSDLLCDQSFRWVDFNSCRDLLDGSTCSNGFSEFCPGAPRPASPVVDTLLVFSNGSITTLSDALTEIPEAAENEQFLANVRDLAHLVGPDLSRVVYYFNELNS”, “not soluble”.

The values are drawn from the DeepSol protein solubility set.
